Data reported in PMC2720833 (Journal of molecular biology, 2009).

Experiments:
Assay in all cases: ITC
[1] = target: SOCS3 box/elonginBC ternary complex (murine | human | mouse, UniProt Q15370 1-118; P83940 17-112)
[2] = target: SOCS1 box/elonginBC ternary complex (murine | human | mouse, UniProt Q15370 1-118; P83940 17-112)
[3] = target: SOCS2 box/elonginBC ternary complex (murine | human | mouse, UniProt Q15370 1-118; P83940 17-112)
[4] = target: SOCS4 box/elonginBC ternary complex (murine | human | mouse, UniProt Q15370 1-118; P83940 17-112)
[5] = target: SOCS5 box/elonginBC ternary complex (murine | human | mouse, UniProt Q15370 1-118; P83940 17-112)
[6] = target: SOCS6 box/elonginBC ternary complex (murine | human | mouse, UniProt Q15370 1-118; P83940 17-112)
[7] = target: SOCS7 box/elonginBC ternary complex (murine | human | mouse, UniProt Q15370 1-118; P83940 17-112)
[8] = target: CIS box/elonginBC ternary complex (murine | human | mouse, UniProt Q15370 1-118; P83940 17-112)

B1: GST-Cullin5 (NTD), N-terminal domain of murine cullin5 (Met1-Leu385) with V341R and L345D (domain or fragment)
chain: MATSNLLKNKGSLQFEDKWDFMHPIVLKLLRQESVTKQQWFDLFSDVHAVCLWDDKGSSKIHQALKEDILEFIKQAQARVLSHQDDTALLKAYIVEWRKFFTQCDILPKPFCQLEVTLLGKQSSNKKSNMEDSIVRKLMLDTWNESIFSNIKNRLQDSAMKLVHAERLGEAFDSQLVIGVRESYVNLCSNPEDKLQIYRDNFEKAYLDSTERFYRTQAPSYLQQNGVQNYMKYADAKLKEEEKRALRYLETRRECNSVEALMECCVNALVTSFKETILAECQGMIKRNETEKLHLMFSLMDKVPNGIEPMLKDLEEHIISAGLADMVAAAETITTDSEKYREQLDTLFNRFSKLVKEAFQDDPRFLTARDKAYKAVVNDATIFKL
[1]
  stoichiometry N: ~1
[2]
  Kd: 1000 nM
  stoichiometry N: ~1
[3]
  Kd: ~10 nM
  stoichiometry N: ~1
[4]
  Kd: ~10 nM
  stoichiometry N: ~1
[5]
  Kd: ~10 nM
  stoichiometry N: ~1
[6]
  Kd: ~10 nM
  stoichiometry N: ~1
[7]
  Kd: ~10 nM
  stoichiometry N: ~1
[8]
  Kd: ~10 nM
  stoichiometry N: ~1
